From patent US20260152527A1 (SIGHTSTREAM BIOTHERAPEUTICS, published 2026) come the findings set out here.

Starred links: 1 amine or outer side, 2 acyl side, 3 side chain; linkers in the order of their positions; H or OH if unused. Positions of bridges follow the written chain, without caps; N, C: chain ends. Non-standard residues stand in square brackets, D forms with d. dLys(N3) = [N-]=[N+]=NCCCC[C@@H](N)C(=O)O; NMeW = CN[C@@H](Cc1c[nH]c2ccccc12)C(=O)O; Lys(N3) = [N-]=[N+]=NCCCC[C@H](N)C(=O)O; mXylylene = c1cc(C[*:1])cc(C[*:2])c1; NMeH = CN[C@@H](Cc1c[nH]cn1)C(=O)O; NMeR = CN[C@@H](CCCNC(=N)N)C(=O)O; NMeF = CN[C@@H](Cc1ccccc1)C(=O)O; dNMeF = CN[C@H](Cc1ccccc1)C(=O)O; R5 = C=CCCC[C@@](C)(N)C(=O)O; S5 = C=CCCC[C@](C)(N)C(=O)O; Nle = CCCC[C@H](N)C(=O)O; Pra = C#CC[C@H](N)C(=O)O

First the molecules themselves.
B1: KR-038 (peptide)
peptide: Ac-[Nle][R5]H[dF]RW[S5]-NH2
modifications: staple 2-7
SMILES: CCCC[C@H](NC(C)=O)C(=O)N[C@]1(C)CCCC=CCCC[C@@](C)(C(N)=O)NC(=O)[C@H](Cc2c[nH]c3ccccc23)NC(=O)[C@H](CCCNC(=N)N)NC(=O)[C@@H](Cc2ccccc2)NC(=O)[C@H](Cc2c[nH]cn2)NC1=O
B2: KR-035 (peptide)
peptide: Ac-[Nle]EHFRWGK-NH2
SMILES: CCCC[C@H](NC(C)=O)C(=O)N[C@@H](CCC(=O)O)C(=O)N[C@@H](Cc1c[nH]cn1)C(=O)N[C@@H](Cc1ccccc1)C(=O)N[C@@H](CCCNC(=N)N)C(=O)N[C@@H](Cc1c[nH]c2ccccc12)C(=O)NCC(=O)N[C@@H](CCCCN)C(N)=O
B3: KR-069 (peptide)
peptide: Ac-[Nle][dLys(N3)]H[dF]RW[Pra]K-NH2
modifications: triazole 2-7; not fully specified; printed as Ac-Nle-[DLys(N3)-His-DPhe-Arg-Trp-Pra]-Lys-NH2
B4: KR-036 (peptide)
peptide: Ac-[Nle]EHFRWGKC-NH2
modifications: not fully specified (bridges); printed as -Cyclo(-Ac-Nle-Glu-His-Phe-Arg-Trp-Gly-Lys-Cys)-NH2; also: cyclo(...) including Ac, ring type and places not given here
B5: KR-012 (peptide)
peptide: Ac-EHFRWGC-NH2
modifications: bridge N-7; not fully specified (bridges); printed as Cyclo(-Ac-Glu-His-Phe-Arg-Trp-Gly-Cys)-NH2
B6: KR-011 (peptide)
peptide: {CH2CO}-EHFRWC-NH2
modifications: thioether N-6
SMILES: N=C(N)NCCC[C@@H]1NC(=O)[C@H](Cc2ccccc2)NC(=O)[C@H](Cc2c[nH]cn2)NC(=O)[C@H](CCC(=O)O)NC(=O)CSC[C@@H](C(N)=O)NC(=O)[C@H](Cc2c[nH]c3ccccc23)NC1=O

The target in the first experiment is human recombinant MC5R (CHO-K1/Ga15 stable cell line, GenScript) (human, UniProt P33032 1-325). Put plainly: cell-based or functional assay.
Sequence of human recombinant MC5R (CHO-K1/Ga15 stable cell line, GenScript) (P33032 whole entry): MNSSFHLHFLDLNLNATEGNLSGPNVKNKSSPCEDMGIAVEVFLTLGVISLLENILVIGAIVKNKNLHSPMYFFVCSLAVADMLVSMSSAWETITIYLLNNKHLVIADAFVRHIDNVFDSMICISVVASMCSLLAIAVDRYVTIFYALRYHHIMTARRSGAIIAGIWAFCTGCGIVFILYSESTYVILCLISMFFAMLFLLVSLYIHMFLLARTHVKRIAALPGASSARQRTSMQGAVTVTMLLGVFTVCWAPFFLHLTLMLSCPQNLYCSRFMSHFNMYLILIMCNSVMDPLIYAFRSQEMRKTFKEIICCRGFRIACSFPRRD
With Ac-[Nle]CH[dF]RCW-NH2 (linker 2-6 via mXylylene) [KR-032], the “MC5R IC50” value turned out to be 489 nM.
On the same count and under the same terms, with Ac-[Nle]CH[dF]RWC-NH2 (linker 2-7 via mXylylene) [KR-040] the figure was 257 nM; with Ac-EHFRWGKPV-NH2 [KR-004], more than 10000 nM.
On the same count and under the same terms, with B1 the figure was 5090 nM; with B2, 404 nM.
On the same count and under the same terms, with Ac-YSMEHFRWGKPV-NH2 [KR-001] the figure was 84.4 nM.
With Ac-SYSMEH[NMeF]RWGKPV-NH2 [KR-022], the “MC5R IC50” value was 698 nM.
The same measure, in the same setting: with Ac-SYSMEHF[NMeR]WGKPV-NH2 [KR-023] the figure was 4540 nM; with Ac-MEHFRWGKPV-NH2 [KR-003], 315 nM; with B3, 161 nM.
Same read-out and setting: with B4 the figure was 289 nM.
Still for that read-out and setting: with XXHFRWX (Ac-Nle-[Dab-His-DPhe-Arg-Trp-Dab] Linker: succinic acid-NH2) [KR-041] the figure was 44.3 nM; with Ac-[Nle][S5]H[dF]RW[S5]-NH2 (staple 2-7) [KR-039], 739 nM.
Turning to XXHFRWX (Ac-Nle-[Dab(N3)-His-DPhe-Arg-Trp-Dab(N3)] linkr: 3,3′-Oxybis[1-propyne]-NH2) [KR-042], the “MC5R IC50” value is 237 nM.
As for Ac-SYSME[NMeH]FRWGKPV-NH2 [KR-021], the “MC5R IC50” value was 225 nM.
Ac-[Nle][Lys(N3)][NMeH][dF]RW[Pra]-NH2 (triazole 2-7) [KR-043]: the “MC5R IC50” value amounted to 86 nM.
In the case of Ac-[Nle][Lys(N3)]H[dF]RW[Pra]K-NH2 (triazole 2-7) [KR-037], the “MC5R IC50” value stood at 106 nM.
Same read-out and setting: with Ac-SYSMEH[dNMeF]RWGKPV-NH2 [KR-025] the figure was 1080 nM; with Ac-[Nle][Lys(N3)]H[dNMeF]RW[Pra]-NH2 (triazole 2-7) [KR-044], 2300 nM.

For a further experiment, the target named is human recombinant MC1R (CHO-K1 stable cell line, GenScript) (human, UniProt Q01726 1-317). Put plainly: cell-based or functional assay.
Sequence of human recombinant MC1R (CHO-K1 stable cell line, GenScript) (Q01726 whole entry): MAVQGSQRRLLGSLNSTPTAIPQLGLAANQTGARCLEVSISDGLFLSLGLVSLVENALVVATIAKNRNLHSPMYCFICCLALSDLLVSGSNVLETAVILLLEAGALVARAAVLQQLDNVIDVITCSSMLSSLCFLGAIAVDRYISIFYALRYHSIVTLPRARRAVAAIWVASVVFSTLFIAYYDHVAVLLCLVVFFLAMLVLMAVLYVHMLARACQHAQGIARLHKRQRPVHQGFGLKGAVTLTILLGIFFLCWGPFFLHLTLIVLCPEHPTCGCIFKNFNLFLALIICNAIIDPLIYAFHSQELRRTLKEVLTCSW
On to B5, for which the “MC1R IC50” value stood at 20 nM.
Still for that read-out and setting: with Ac-[Nle]CH[dF]RWC-NH2 (linker 2-7 via mXylylene) [KR-040] the figure was 0.124 nM.
On the same count and under the same terms, with Ac-EHFRWGKPV-NH2 [KR-004] the figure was 1.15 nM.
With B1, the “MC1R IC50” value is more than 50 nM.
On to B2, for which the “MC1R IC50” value was found to be 0.36 nM.
Consider Ac-YSMEHFRWGKPV-NH2 [KR-001], for which the “MC1R IC50” value came to 0.061 nM.
Same read-out and setting: with Ac-SYSMEH[NMeF]RWGKPV-NH2 [KR-022] the figure was more than 200 nM; with Ac-SYSMEHFR[NMeW]GKPV-NH2 [KR-024], 0.88 nM.
Regarding Ac-SYSMEHF[NMeR]WGKPV-NH2 [KR-023], the “MC1R IC50” value turned out to be 21.2 nM.
Same read-out and setting: with Ac-MEHFRWGKPV-NH2 [KR-003] the figure was 0.13 nM; with B3, 16.5 nM.
Take B4: the “MC1R IC50” value is 0.88 nM.
For XXHFRWX (Ac-Nle-[Dab-His-DPhe-Arg-Trp-Dab] Linker: succinic acid-NH2) [KR-041], the “MC1R IC50” value came to 0.04 nM.
As for Ac-[Nle][S5]H[dF]RW[S5]-NH2 (staple 2-7) [KR-039], the “MC1R IC50” value was 1.95 nM.
On the same count and under the same terms, with XXHFRWX (Ac-Nle-[Dab(N3)-His-DPhe-Arg-Trp-Dab(N3)] linkr: 3,3′-Oxybis[1-propyne]-NH2) [KR-042] the figure was 0.16 nM; with Ac-[Nle][Lys(N3)][NMeH][dF]RW[Pra]-NH2 (triazole 2-7) [KR-043], 0.15 nM.
For the molecule Ac-[Nle][Lys(N3)]H[dF]RW[Pra]K-NH2 (triazole 2-7) [KR-037], the “MC1R IC50” value was 0.024 nM.
On the same count and under the same terms, with Ac-SYSMEH[dNMeF]RWGKPV-NH2 [KR-025] the figure was 17.8 nM; with Ac-[Nle][Lys(N3)]H[dNMeF]RW[Pra]-NH2 (triazole 2-7) [KR-044], more than 50 nM.
Still for that read-out and setting: with B6 the figure was 128 nM.

The target of a further experiment is human recombinant MC3R (CHO-K1/Gα15 stable cell line, GenScript) (human, UniProt P41968 1-323). Put plainly: cell-based or functional assay.
Sequence of human recombinant MC3R (CHO-K1/Gα15 stable cell line, GenScript) (P41968 whole entry): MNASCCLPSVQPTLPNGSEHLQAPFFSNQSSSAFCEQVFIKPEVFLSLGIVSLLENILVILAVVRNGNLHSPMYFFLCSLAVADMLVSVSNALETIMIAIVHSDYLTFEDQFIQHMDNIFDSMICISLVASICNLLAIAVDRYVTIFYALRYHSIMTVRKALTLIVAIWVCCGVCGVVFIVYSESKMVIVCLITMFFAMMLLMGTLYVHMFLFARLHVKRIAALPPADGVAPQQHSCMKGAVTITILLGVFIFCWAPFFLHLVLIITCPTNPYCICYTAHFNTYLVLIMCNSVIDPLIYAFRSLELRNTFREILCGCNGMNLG
For B5, the “MC3R IC50” value is 5570 nM.
The same measure, in the same setting: with Ac-[Nle]CH[dF]RCW-NH2 (linker 2-6 via mXylylene) [KR-032] the figure was 1330 nM.
For Ac-EHFRWGKPV-NH2 [KR-004], the “MC3R IC50” value is 937 nM.
The same measure, in the same setting: with B1 the figure was 20000 nM; with B2, 276 nM.
On the same count and under the same terms, with Ac-YSMEHFRWGKPV-NH2 [KR-001] the figure was 199 nM.
In the case of Ac-SYSMEH[NMeF]RWGKPV-NH2 [KR-022], the “MC3R IC50” value was more than 50000 nM.
Still for that read-out and setting: with Ac-SYSMEHFR[NMeW]GKPV-NH2 [KR-024] the figure was 515 nM.
The same measure, in the same setting: with Ac-SYSMEHF[NMeR]WGKPV-NH2 [KR-023] the figure was 13400 nM.
Regarding Ac-MEHFRWGKPV-NH2 [KR-003], the “MC3R IC50” value was 289 nM.
The same measure, in the same setting: with B4 the figure was 328 nM.
With XXHFRWX (Ac-Nle-[Dab-His-DPhe-Arg-Trp-Dab] Linker: succinic acid-NH2) [KR-041], the “MC3R IC50” value was found to be 24.1 nM.
Turning to Ac-[Nle][S5]H[dF]RW[S5]-NH2 (staple 2-7) [KR-039], the “MC3R IC50” value turned out to be 426 nM.
For the molecule XXHFRWX (Ac-Nle-[Dab(N3)-His-DPhe-Arg-Trp-Dab(N3)] linkr: 3,3′-Oxybis[1-propyne]-NH2) [KR-042], the “MC3R IC50” value was found to be 225 nM.
The same measure, in the same setting: with Ac-SYSME[NMeH]FRWGKPV-NH2 [KR-021] the figure was 445 nM; with Ac-[Nle][Lys(N3)][NMeH][dF]RW[Pra]-NH2 (triazole 2-7) [KR-043], 61.6 nM; with Ac-[Nle][Lys(N3)]H[dF]RW[Pra]K-NH2 (triazole 2-7) [KR-037], 62.9 nM.
On the same count and under the same terms, with Ac-SYSMEH[dNMeF]RWGKPV-NH2 [KR-025] the figure was more than 50000 nM; with Ac-[Nle][Lys(N3)]H[dNMeF]RW[Pra]-NH2 (triazole 2-7) [KR-044], more than 50000 nM.
On the same count and under the same terms, with B6 the figure was more than 50000 nM.

The target in a further experiment is human recombinant MC4R (CHO-K1/Gα15 stable cell line, GenScript) (human, UniProt P32245 1-332). Description: cell-based or functional assay.
Sequence of human recombinant MC4R (CHO-K1/Gα15 stable cell line, GenScript) (P32245 whole entry): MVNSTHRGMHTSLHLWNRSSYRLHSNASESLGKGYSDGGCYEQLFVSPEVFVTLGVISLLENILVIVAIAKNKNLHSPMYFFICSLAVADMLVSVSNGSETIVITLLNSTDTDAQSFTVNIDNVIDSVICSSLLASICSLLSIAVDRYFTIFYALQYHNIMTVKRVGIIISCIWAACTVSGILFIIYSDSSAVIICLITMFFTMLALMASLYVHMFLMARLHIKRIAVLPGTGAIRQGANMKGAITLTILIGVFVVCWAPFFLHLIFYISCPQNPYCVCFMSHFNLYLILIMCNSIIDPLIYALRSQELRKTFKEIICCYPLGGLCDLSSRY
With B5, the “MC4R IC50” value worked out at 16 nM.
Same read-out and setting: with Ac-[Nle]CH[dF]RCW-NH2 (linker 2-6 via mXylylene) [KR-032] the figure was 194 nM.
With Ac-EHFRWGKPV-NH2 [KR-004], the “MC4R IC50” value came out at 34.2 nM.
Consider B1, for which the “MC4R IC50” value turned out to be 74 nM.
The same measure, in the same setting: with B2 the figure was 59.6 nM; with Ac-YSMEHFRWGKPV-NH2 [KR-001], 87.6 nM.
The same measure, in the same setting: with Ac-MEHFRWGKPV-NH2 [KR-003] the figure was 40.5 nM; with B3, 30.9 nM; with B4, 40.6 nM.
The same measure, in the same setting: with XXHFRWX (Ac-Nle-[Dab-His-DPhe-Arg-Trp-Dab] Linker: succinic acid-NH2) [KR-041] the figure was 13.8 nM; with Ac-[Nle][S5]H[dF]RW[S5]-NH2 (staple 2-7) [KR-039], 35.4 nM.
On to XXHFRWX (Ac-Nle-[Dab(N3)-His-DPhe-Arg-Trp-Dab(N3)] linkr: 3,3′-Oxybis[1-propyne]-NH2) [KR-042], for which the “MC4R IC50” value worked out at 109 nM.
Still for that read-out and setting: with Ac-[Nle][Lys(N3)][NMeH][dF]RW[Pra]-NH2 (triazole 2-7) [KR-043] the figure was 31.4 nM.
On the same count and under the same terms, with Ac-[Nle][Lys(N3)]H[dF]RW[Pra]K-NH2 (triazole 2-7) [KR-037] the figure was 35 nM; with Ac-[Nle][Lys(N3)]H[dNMeF]RW[Pra]-NH2 (triazole 2-7) [KR-044], 238 nM; with B6, 104 nM.
